Source: the supplement of paper PMC9112550, “Optimization of the antimicrobial peptide Bac7 by deep mutational scanning” (BMC Biology, 2022)

System: Escherichia coli TOP10
Test: shrunken log2 fold change of peptide-encoding DNA abundance (4.5 h post-induction vs induction); higher = less antimicrobial activity (less host growth inhibition)
Conditions: time post-induction: 4.5 h; library: site-saturation at positions 5, 18, 19, 20
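Also: peptides expressed intracellularly from a pBAD plasmid library in pooled LB shake-flask culture, induced with 0.3% L-arabinose, DNA abundance read by NGS, three biological replicates, DESeq2 with apeglm shrinkage.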

| Sequence | shrunken log2 fold change |
| --- | --- |
| RRIRQRPPRLPRPRPRPKCNPRP | -0.472 |
| RRIRVRPPRLPRPRPRPKRVPRP | 0.0344 |
| RRIRHRPPRLPRPRPRPIFAPRP | 0.158 |
| RRIRRRPPRLPRPRPRPFWNPRP | 0.0866 |
| RRIRFRPPRLPRPRPRPPEVPRP | 0.795 |
| RRIRRRPPRLPRPRPRPNAFPRP | -0.0721 |
| RRIRWRPPRLPRPRPRPACPPRP | 0.105 |
| RRIRYRPPRLPRPRPRPHNVPRP | -0.14 |
| RRIRERPPRLPRPRPRPRVEPRP | -0.182 |
| RRIRVRPPRLPRPRPRPTTLPRP | -0.111 |
| RRIRSRPPRLPRPRPRPIIVPRP | 0.0771 |
| RRIRSRPPRLPRPRPRPDQTPRP | 0.0249 |
| RRIRPRPPRLPRPRPRPSMFPRP | -0.437 |
| RRIRARPPRLPRPRPRPALYPRP | 0.332 |
| RRIRWRPPRLPRPRPRPEMQPRP | 1.12 |
| RRIRKRPPRLPRPRPRPWFSPRP | -0.329 |
| RRIRCRPPRLPRPRPRPSQQPRP | -0.0757 |
| RRIRHRPPRLPRPRPRPQNFPRP | -0.522 |
| RRIRTRPPRLPRPRPRPMIKPRP | -0.103 |
| RRIRQRPPRLPRPRPRPMDSPRP | -0.01 |
| RRIRGRPPRLPRPRPRPQENPRP | 0.462 |
| RRIRYRPPRLPRPRPRPRVSPRP | -0.216 |
| RRIRERPPRLPRPRPRPMAFPRP | 0.099 |

| Sequence | shrunken log2 fold change |
| --- | --- |
| RRIRDRPPRLPRPRPRPSNHPRP | -0.548 |
| RRIRCRPPRLPRPRPRPTYYPRP | -0.758 |
| RRIRQRPPRLPRPRPRPVMKPRP | -0.212 |
| RRIRHRPPRLPRPRPRPLNKPRP | -0.677 |
| RRIRYRPPRLPRPRPRPWPTPRP | -0.426 |
| RRIRKRPPRLPRPRPRPDEGPRP | -0.01 |
| RRIRVRPPRLPRPRPRPDDQPRP | -0.00455 |
| RRIRDRPPRLPRPRPRPGPQPRP | -0.0494 |
| RRIRFRPPRLPRPRPRPWLFPRP | -0.0194 |
| RRIRPRPPRLPRPRPRPYCVPRP | -0.479 |
| RRIRTRPPRLPRPRPRPESCPRP | 0.145 |
| RRIRERPPRLPRPRPRPINPPRP | -0.00597 |
| RRIRWRPPRLPRPRPRPYCGPRP | -0.187 |
| RRIRKRPPRLPRPRPRPFFVPRP | 0.461 |
| RRIRTRPPRLPRPRPRPERHPRP | -0.0333 |
| RRIRFRPPRLPRPRPRPYACPRP | 0.0338 |
| RRIRSRPPRLPRPRPRPRRKPRP | 0.207 |
| RRIRLRPPRLPRPRPRPIRTPRP | 0.0758 |
| RRIRERPPRLPRPRPRPARMPRP | 0.0587 |
| RRIRERPPRLPRPRPRPKQTPRP | -0.0871 |
| RRIRRRPPRLPRPRPRPLLDPRP | 0.449 |
| RRIRTRPPRLPRPRPRPMRCPRP | -0.117 |
| RRIRWRPPRLPRPRPRPIPAPRP | 0.523 |

| Sequence | shrunken log2 fold change |
| --- | --- |
| RRIRVRPPRLPRPRPRPYIKPRP | -0.982 |
| RRIRGRPPRLPRPRPRPWMGPRP | -0.0634 |
| RRIRGRPPRLPRPRPRPKHQPRP | 0.441 |
| RRIRSRPPRLPRPRPRPGFDPRP | 0.455 |
| RRIRRRPPRLPRPRPRPIMVPRP | -0.371 |
| RRIRYRPPRLPRPRPRPLEYPRP | -0.443 |
| RRIRSRPPRLPRPRPRPMIVPRP | -0.377 |
| RRIRRRPPRLPRPRPRPEQNPRP | 0.849 |
| RRIRFRPPRLPRPRPRPLSSPRP | -0.307 |
| RRIRLRPPRLPRPRPRPILWPRP | -0.0294 |
| RRIRRRPPRLPRPRPRPYAFPRP | 0.0067 |
| RRIRTRPPRLPRPRPRPRINPRP | -0.506 |
| RRIRVRPPRLPRPRPRPFFSPRP | -0.371 |
| RRIRTRPPRLPRPRPRPQIVPRP | 0.0532 |
| RRIRNRPPRLPRPRPRPVWTPRP | -0.118 |
| RRIRARPPRLPRPRPRPQFYPRP | -0.183 |
| RRIRQRPPRLPRPRPRPAVAPRP | 0.0726 |
| RRIRHRPPRLPRPRPRPMGTPRP | -0.0597 |
| RRIRLRPPRLPRPRPRPTQCPRP | 0.0455 |
| RRIRKRPPRLPRPRPRPVIVPRP | -0.0233 |
| RRIRERPPRLPRPRPRPDKQPRP | 0.0325 |
| RRIRARPPRLPRPRPRPRGPPRP | 0.933 |
| RRIRSRPPRLPRPRPRPCDKPRP | -0.324 |

| Sequence | shrunken log2 fold change |
| --- | --- |
| RRIRRRPPRLPRPRPRPIGIPRP | -0.088 |
| RRIRKRPPRLPRPRPRPACTPRP | 0.219 |
| RRIRFRPPRLPRPRPRPKNEPRP | -0.137 |
| RRIRWRPPRLPRPRPRPNADPRP | 0.466 |
| RRIRNRPPRLPRPRPRPTYIPRP | -0.603 |
| RRIRRRPPRLPRPRPRPTQAPRP | -0.0717 |
| RRIRERPPRLPRPRPRPVVDPRP | 0.0306 |
| RRIRLRPPRLPRPRPRPIILPRP | -1.48 |
| RRIRERPPRLPRPRPRPIWQPRP | 0.062 |
| RRIRRRPPRLPRPRPRPVFQPRP | 0.00379 |
| RRIRERPPRLPRPRPRPKMEPRP | -0.0415 |
| RRIRKRPPRLPRPRPRPHTQPRP | 0.13 |
| RRIRVRPPRLPRPRPRPDSKPRP | -0.34 |
| RRIRDRPPRLPRPRPRPYPFPRP | -0.671 |
| RRIRVRPPRLPRPRPRPLETPRP | -0.062 |
| RRIRVRPPRLPRPRPRPMREPRP | 0.689 |
| RRIRMRPPRLPRPRPRPRYVPRP | -0.18 |
| RRIRNRPPRLPRPRPRPTKAPRP | -0.00132 |
| RRIRTRPPRLPRPRPRPRYPPRP | -0.516 |
| RRIRTRPPRLPRPRPRPEWIPRP | 0.0842 |
| RRIRPRPPRLPRPRPRPQFDPRP | -0.0475 |
| RRIRYRPPRLPRPRPRPVSTPRP | -0.511 |
